Entries after “also recorded” stand apart in the source; their conditions may differ.
Tests used:
hT40 = hT40 (Homo sapiens, UniProt P10636); assay: Biacore X100 SPR, scAb captured via anti-HuCk, hT40 as analyte; type: binding; conditions: scAb, Table 23, T441 (hT40)
Summary of the method: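 Captured scAb on anti-HuCk CM5 surface (flow cell 1 as reference) in HBS-EP+, capture set for theoretical RMax 100 RU; hT40 injected multi-cycle (0.15625–100 nM) or single-cycle (6.25–100 nM), 120 s association, 420 s dissociation, glycine pH 2.0 regeneration. Kinetics and affinity from 1:1 binding model fit.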

dGAE = dGAE (Homo sapiens, UniProt P10636); assay: dGAE fibril assembly, transmission electron microscopy; type: biochemical; conditions: dGAE:antibody 4:1 or 1:1, 700 rpm, 37° C., 3 days
Procedure: dGAE protein was diluted into 10 mM phosphate buffer, pH 7.4 (PB) with monoclonal antibody s1D12 at a ratio of 4:1 protein: Ab (100 μM dGAE+25 μM s1D12 and 10 μM dGAE+2.5 μM s1D12) or 1:1 (25 μM dGAE+25 μM s1D12).
As a positive control, dGAE was prepared at a final concentration of 10, 25 or 100 μM in 10 mM PB. Negative controls consisted of dGAE with a non-tau IgG antibody at a ratio of 4:1 (10 μM dGAE+2.5 μM anti-ovalbumin), or antibody alone (25 or 2.5 μM s1D12 and 2.5 μM anti-ovalbumin). Samples were agitated at 700 rpm at 37° C., for 3 days.
Transmission electron microscopy (TEM), circular dichroism (CD) and Thioflavin S (ThS) assays were performed as detailed in Al-Hilaly et, al. (2018) J. Mol. Biol. 430, 4119-4131. Briefly, TEM grids were prepared by adding 4 μL of sample to a carbon-coated grid followed by a wash with milli-Q filtered water then staining twice with 2% uranyl acetate. Grids were air dried and then imaged using a JEOL electron microscope operating at 80 kV.

[1] = system: tau protein in brain homogenate; assay: Capture ELISA on transgenic mouse brain lysates; type: binding; conditions: S1D12 mAb capture; WT, L1, L66+/- and L66+/+
Procedure: Mouse brain lysates were prepared from wildtype, Line 1, Line 66+/+ and Line 66+/− (Melis et al., 2015, all surplus from Charles River, part of study R0144). All animals were female, 7-8 months old except Line 66+/+ which were 5 months old. […] The L1 cDNA construct (FIG. 23) contains human tau cDNA coding for amino acid residues 296-390 with a signal sequence and related sequences in a murine Thy-1 expression cassette. For brain lysate preparation, half brains were sectioned into four and the individual sections were homogenised in 400 μl of ice cold RIPA buffer (Cell signalling Technology) containing protease and phosphatase inhibitors. Total protein concentrations for individual samples were established by BCA-assay and each sample was subsequently diluted to 1 mg/ml for future experiments.
For capture ELISA, 100 µL S1D12 capture mAb was used to coat a nunc 96 well Maxisorp plate at 1 μg/ml and incubated for 1 hour at 37° C. Plate was washed as previously and then blocked for 1 hour at 37° C., in 2% MPBS. Brain homogenate samples (50 ng total protein) from each mouse type were added to the first wells and double diluted across the plate in PBS. These samples were left to incubate at RT for 1 hour. Various detection scAbs encompassing epitopes of interest were then added to the plate at 1 μg/ml and incubated for 1 h at RT. […]

Sequence of hT40 (P10636 1-441 isoform P10636-8): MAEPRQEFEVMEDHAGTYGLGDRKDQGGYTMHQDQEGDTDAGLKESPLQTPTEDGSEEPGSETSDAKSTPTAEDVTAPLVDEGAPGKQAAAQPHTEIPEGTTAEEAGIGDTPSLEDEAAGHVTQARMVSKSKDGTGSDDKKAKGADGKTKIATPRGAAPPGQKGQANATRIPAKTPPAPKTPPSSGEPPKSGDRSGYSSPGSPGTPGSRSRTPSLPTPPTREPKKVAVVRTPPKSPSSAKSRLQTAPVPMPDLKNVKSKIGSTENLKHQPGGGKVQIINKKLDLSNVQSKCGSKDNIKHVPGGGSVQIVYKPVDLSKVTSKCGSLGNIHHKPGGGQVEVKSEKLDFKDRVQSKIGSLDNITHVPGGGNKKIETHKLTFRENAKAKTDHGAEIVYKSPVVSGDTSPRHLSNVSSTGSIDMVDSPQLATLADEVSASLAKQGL
Sequence of dGAE (P10636 614-708): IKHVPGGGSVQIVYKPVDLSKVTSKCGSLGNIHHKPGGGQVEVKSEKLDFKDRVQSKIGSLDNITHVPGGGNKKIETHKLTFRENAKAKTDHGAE

Row | Molecule | ka (hT40) | kd (hT40) | dGAE fibrils observed by TEM (dGAE) | tau detection in mouse brain homogenate [1]
1 | S1D12: anti-tau clone from immunised sheep, SEQ ID NO: 32 (protein, S1D12 amino acid sequence) scFv: QVQLQESGPSLVKPSQTLSLTCTVSGFSLNNNAVGWVRQAPGKVPESLVGCSSDGTCYYNSALKSRLDITRDTSKNQISLSLSSVTTDDAAVYYCTRGHYSIYGYDYLGTIDYWGPGLLVTVSSEGKSSGASGESKVDDQAVLTQPSSVSGSLGQRVSITCSGSSSNVGGGNSVGWYQHLPGSGLKTIIYDTNSRPSGVPDRFSGSRSGNTATLTINSLQAEDEGDYYCVTGDSTTHDDLVGSGTRLTVLG | 1.252e+06 M⁻¹ s⁻¹ | 0.00015 s⁻¹ | no fibrils were present; also recorded: no fibril formation is observed | 
2 | S1G2: anti-tau clone, SEQ ID NO: 81 (protein, S1G2 amino acid sequence) scFv: QVQLQESGPSLVKPSQTLSLTCTVSGFSLTSNSVGWVRQAPGKAPEWVAGIDTDGEEGYNPALNSRLSITRDTSKSQVSLSLSSVTSEDTAVYYCGRSYRADGLAYGYVQAIDYWGPGLLVTVSSEGKSSGASGESKVDDQAVVTQPSSVSGSLGQRVSITCSGSFIGISSVGWFQQLPGSGLRTIIVASDGRPSGVPDRFSMSKSGNTATLTISSLQAEDEADYFCGSSDRTPYTGVFGSGTRLTVLG | 1.057e+06 M⁻¹ s⁻¹ | 0.00018 s⁻¹ |  | tau protein was detected in 50 μg of total brain protein in all four different sample types

From US12624096B2, “Anti-tau antibodies and methods of use thereof” (GTInvent Limited, priority 2020, dated 2026)
